Series [1] can be described thus: Enzyme activity assay of Fcf2: temperature optima (capillary electrophoresis). Format: biochemical, E. coli O52. The settings on record: for Transformation rate (%): 3 hours, 2 mM dTDP-D-fucose, 3.9 μM enzyme. Here is the method: 25 μl reactions in 0.5 ml centrifugal tube contain 2 mM dTDP-D-fucose, 50 mM Tris-HCl buffer (pH 7.4) 5 mM divalent ion chloride and 3.9 μM recombinant dTDP-D-Glcfucofuranose mutase protein purified in example 2. The reactions are proceeded at certain temperature for 3 hours. Then add chloroform of equal volume to extract protein. The aqueous phase is detected by Beckman Coulter P/ACE MDQ capillary electrophoresis.

Series [2] is described as follows: Enzyme activity assay of Fcf1: temperature optima and kinetic parameters (capillary electrophoresis). Format: biochemical, E. coli O52. The settings on record: for Transformation rate (%): 2 hours, 2 mM dTDP-D-Glco, 3 mM NADPH, 0.25 μM enzyme. On the procedure: 20 μl reactions in 0.5 ml centrifugal tube contain 2 mM dTDP-D-Glco, 3 mM NADPH, 50 mM Tris-HCl buffer (pH7.4), 5 mM divalent ion chloride and 0.25 μM recombinant dTDP-D-GIcO reductase protein purified in example 2. The reactions are proceeded at certain temperatures for 2 hours. Then add chloroform of equal volume to extract protein. The aqueous phase is detected by Beckman Coulter P/ACE MDQ capillary electrophoresis.
In the condition of the foregoing reaction (37° C., 3 mM MADPH, 50 mM Tris-HCl buffer (pH 7.4), 0.25 μM enzyme, 30 seconds), the concentration of dTDP-GIcO is 0.1-1 mM. Measure the concentration of dTDP-Qui4N.

Where [3] appears, read: 37° C., pH 7.4, 0.25 μM enzyme, 30 seconds, dTDP-GIcO 0.1-1 mM, Michaelis-Menten equation.

As usually defined, the Km is the concentration of substrate that gives half-maximal velocity. The kcat is the maximal rate divided by the concentration of active sites.

B1: Fcf2: dTDP-D-Fucp mutase of E. coli O52 converting dTDP-D-Fucp to dTDP-D-Fucf, 377 amino acids, SEQ ID NO:4 (protein)
chain: MNKVLIIGSGFSGATIARLLAEENIKVKIIDDRKHIGGNCYDERDEKTGINVHVYGPHIFHTDNEDVWNFVNKYGTFQPYTTRLKANAKGQIYSLPVNLHTINQYYKTALSPTEARKLIASKGDQTINDPQSFEEQALKFVGEDLYKTFFYGYPKKQWGMEPKEIPASVLKRLPVRFNYDDNYFFHKFQGIPRDGYTPLFQNLLNHPNIEFELGKKVNRATVEELITSEQYGHVFFSGAIDHFYDYEFGMLQYRTLDFEKFYSEDDDYQGCVVMSYCDEDVPYTRVTEHKYFTPWEEHKGSVLYKEFSRSCDKEDIPYYPVRLVSGNSIWNKYEQKAKEETNITFIGRLATYRYLDMDVCIKEAIECAQLYIKNNKE
modifications: E. coli O52
With B1, the “Transformation rate (%)” value was determined as 1.6% in series [1] (4° C.); 9.5% in series [1] (15° C.); 9.6% in series [1] (25° C.); 9.6% in series [1] (37° C.); 4.7% in series [1] (50° C.); 0% in series [1] (65° C.). Also, the “Transformation rate (%)” value in series [1] (80° C.) is reported as 0%. The “optimum temperature for the enzyme activity” value in series [1] (standard reactions at 4-80° C.) came out at 37 °C.

B2: Fcf1: dTDP-6-deoxy-D-xylo-hex-4-ulopyranose reductase of E. coli O52, 316 amino acids, SEQ ID NO:3 (protein)
chain: MDARKNGVLITGGAGFIGKALITEMVERQIPLVSFDISDKPDSLPELSEYFNWYKFSYLESSQRIKELHEIVSRHNIKTVIHLATTMFPHESKKNIDKDCLENVYANVCFFKNLYENGCEKIIFASSGGTVYGKSDTPFSEDDALLPEISYGLSKVMTETYLRFIAKELNGKSISLRISNPYGEGQRIDGKQGVIPIFLNKISNDIPIDIIGSIESKRDYIYISDLVQAFMCSLEYEGHEDIFNIGSGESITLKKLIETIEFKLNKKAVIGFQDPIHTNANGIILDIKRAMAELGWRPTVVLDDGIDKLIKSIRCK
modifications: E. coli O52
As to B2, the “Transformation rate (%)” value came out at 47.0% in series [2] (4° C.); 100% in series [2] (15° C.); 100% in series [2] (25° C.); 100% in series [2] (37° C.); 35.5% in series [2] (50° C.); 31% in series [2] (65° C.). Moreover, in series [2] (80° C.), the “Transformation rate (%)” value worked out at 22%. In addition, in series [2] (setting [3]), the Michaelis-Menten constant (Km) turned out to be 540 µM. Further, the turnover number (kcat) in series [2] (setting [3]) stood at 15.9 s⁻¹. Also, the “optimum temperature for the enzyme activity” value in series [2] (standard reactions at 4-80° C.) is 15-37 °C.
